Paper PMC3766443 (Nature structural & molecular biology, 2013)

Biological target: Arp2 subunit of Bos taurus Arp2/3 complex (Bos taurus, UniProt A7MB62 1-394)
Test: crystal structure

binding result: binds
B1: Mus musculus GMFγ (glial maturation factor gamma), GST tag removed (natural protein)
chain: MSDSLVVCEVDPELKETLRKFRFRKETNNAAIIMKVDKDRQMVVLEDELQNISPEELKLELPERQPRFVVYSYKYVHDDGRVSYPLCFIFSSPVGCKPEQQMMYAGSKNRLVQTAELTKVFEIRTTDDLTETWLKEKLAFFR
